Values quoted from earlier work in article PMC5808296.
Where two headings read alike, the source gives them in different places.

Assays:
[1] = target: Aβ42 Aβ1-42 (Mus musculus) (UniProt P12023)
[2] = target: Aβ42 Aβ1-42 (Mus musculus) (UniProt P12023); remark: listed apart in the source

Row | Kd [1] | Kd [2] | Substance
1 | 0.545 nM | – | C-FRHMTEQ-C peptide
2 | – | 0.22 nM | C-IPLPFYN-C peptide
